Reference: publication PMC5397608 (Journal of Molecular Biology, 2017)
Where a chain is given by its changes, count along the chain named. Names may count otherwise.

B1: mAb2_SL50K (antibody, V domains shown)
VH: EVQLVESGGGLVQPGGSLRLSCAASGFTISDYWIHWVRQAPGKGLEWVAGITPAGGYTYYADSVKGRFTISADTSKNTAYLQMNSLRAEDTAVYYCARFVFFLPYAMDYWGQGTLVTVSS
VL: DIQMTQSPSSLSASVGDRVTITCRASQDVSTAVAWYQQKPGKAPKLLIYKASFLYSGVPSRFSGSGSGTDFTLTISSLQPEDFATYYCQQSYTTPPTFGQGTKVEIK
notes: as the heavy chain variable region of m1 (PDB 2FJF); constant regions of an IgG1 isotype, already in the expression vector; as the light chain variable region of m1 (PDB 2FJF), with the stated change; light chain constant region from the expression vector; IgG1; also called S50K in the light chain; source: CHO K1, transiently transfected, purified (protein A)
B2: mAb2_SL50K_SH21R_SH85R_FH101P (antibody, V domains shown)
VH: B1 VH with S21R, S85R, F101P
VL: B1 VL
notes: as the heavy chain variable region of m1 (PDB 2FJF), with the stated changes; constant regions of an IgG1 isotype, already in the expression vector; as the light chain variable region of m1 (PDB 2FJF), with the stated change; light chain constant region from the expression vector; IgG1; also called mAb2 FH101P SL50K SH21R SH85R; source: CHO K1, transiently transfected, purified (protein A)
B3: mAb2_FH101P (antibody, V domains shown)
VH: B1 VH with F101P
VL: B1 VL with K50S
notes: as the heavy chain variable region of m1 (PDB 2FJF), with the stated change; constant regions of an IgG1 isotype, already in the expression vector; as the light chain variable region of m1 (PDB 2FJF); light chain constant region from the expression vector; IgG1; source: CHO K1, transiently transfected, purified (protein A)
B4: mAb2_SL50K_FH101P (antibody, V domains shown)
VH: B1 VH with F101P
VL: B1 VL
notes: as the heavy chain variable region of m1 (PDB 2FJF), with the stated change; constant regions of an IgG1 isotype, already in the expression vector; as the light chain variable region of m1 (PDB 2FJF), with the stated change; light chain constant region from the expression vector; IgG1; also called mAb2 FH101P SL50K; variant 8; source: CHO K1, transiently transfected, purified (protein A)
B5: mAb2_VH100R (antibody, V domains shown)
VH: B1 VH with V100R
VL: B1 VL with K50S
notes: as for B3
B6: mAb2_SL52R_FH101P (antibody, V domains shown)
VH: B1 VH with F101P
VL: B1 VL with K50S, S52R
notes: as the heavy chain variable region of m1 (PDB 2FJF), with the stated change; constant regions of an IgG1 isotype, already in the expression vector; as the light chain variable region of m1 (PDB 2FJF), with the stated change; light chain constant region from the expression vector; IgG1; also called mAb2 FH101P SL52R; source: CHO K1, transiently transfected, purified (protein A)
B7: mAb2_SL52R_SH21R_SH85R_FH101P (antibody, V domains shown)
VH: B1 VH with S21R, S85R, F101P
VL: B1 VL with K50S, S52R
notes: as the heavy chain variable region of m1 (PDB 2FJF), with the stated changes; constant regions of an IgG1 isotype, already in the expression vector; as the light chain variable region of m1 (PDB 2FJF), with the stated change; light chain constant region from the expression vector; IgG1; also called mAb2 FH101P SL52R SH21R SH85R; source: CHO K1, transiently transfected, purified (protein A)
B8: mAb2_SL50K_SH21R_SH85R (antibody, V domains shown)
VH: B1 VH with S21R, S85R
VL: B1 VL
notes: as the heavy chain variable region of m1 (PDB 2FJF), with the stated changes; constant regions of an IgG1 isotype, already in the expression vector; as the light chain variable region of m1 (PDB 2FJF), with the stated change; light chain constant region from the expression vector; IgG1; also called Variant 7; source: CHO K1, transiently transfected, purified (protein A)
B9: mAb2_SL50D (antibody, V domains shown)
VH: B1 VH
VL: B1 VL with K50D
notes: as the heavy chain variable region of m1 (PDB 2FJF); constant regions of an IgG1 isotype, already in the expression vector; as the light chain variable region of m1 (PDB 2FJF), with the stated change; light chain constant region from the expression vector; IgG1; source: CHO K1, transiently transfected, purified (protein A)

Target: T1, recombinant human Vascular Endothelial Growth Factor a (Homo sapiens, UniProt P15692-4, fluorescently labeled with Alexa-647)
T1 construct: human VEGFa, UniProt ID P15692, aa 27-191 as printed; the isoform is my reading of the limits 27-191; also called rhVEGFa; recombinant human VEGFa; source: recombinant
T1 sequence (P15692 other isoform, or with tags, fused parts or gaps): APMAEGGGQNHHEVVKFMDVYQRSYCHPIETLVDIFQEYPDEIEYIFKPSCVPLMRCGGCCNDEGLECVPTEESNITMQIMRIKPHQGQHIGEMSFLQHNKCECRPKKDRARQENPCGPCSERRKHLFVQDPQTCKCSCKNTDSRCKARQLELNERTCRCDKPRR
Assay: MST; Alexa-647-labelled rhVEGFa constant at 1 nM in solution, mAb2 WT or variants in varying concentrations; 295 K; 25 mM sodium citrate pH 6.0, 125 mM NaCl, 0.05% Tween 20; triplicates; NanoTemper Monolith NT.115
Details: both partners purified

Binder | Kd | binding result
B1 | 8.3 ± 1.4 nM | 
B2 |  | no binding
B3 |  | no binding
B4 |  | no binding
B5 |  | no binding
B6 |  | no binding
B7 |  | no binding
B8 | 57.1 ± 6.2 nM | 
B9 | 4.4 ± 1.3 nM | 
